Measurements from paper PMC10653801.

B1: OI (O1 downstream repeat inverted) (dsDNA)
DNA 1: TATCATTTTTACTGCTATAAAATGACTATATAATTAATTTTTGGTGTTCC
DNA 2: GGAACACCAAAAATTAATTATATAGTCATTTTATAGCAGTAAAAATGATA
B2: OS (O1 scrambled) (dsDNA)
DNA 1: TATCATTTAACAAACTCGATTTGTTATATATAATTAATTTTTGGTGTTCC
DNA 2: GGAACACCAAAAATTAATTATATATAACAAATCGAGTTTGTTAAATGATA
B3: CO (random + O1) (dsDNA)
DNA 1: ACTGTGAGCCTAATATTTACTGCTATAACAGTAAAGGCTATCTGATTTTA
DNA 2: TAAAATCAGATAGCCTTTACTGTTATAGCAGTAAATATTAGGCTCACAGT

Target: HipB(Lp) (Legionella pneumophila Lp01JK, UniProt Q5ZSZ8 1-75)
Assay: EMSA; HipB 2.5 nM, DNA 10 nM
Conditions: protein: recombinant; tags: His6-SBP tag cleaved; chain copies: 2; blunt

Question: Does B1 bind?
Answer: binds

Question: Does B2 bind?
Answer: no binding

Question: Does B3 bind?
Answer: binds
